This is an account of results in patent US20130345129A1 (OTSUKA CHEMICAL, published 2013).

This test deals with T1, mouse GLP-1 receptor (mouse, UniProt O35659 22-463).
T1 sequence (looked up): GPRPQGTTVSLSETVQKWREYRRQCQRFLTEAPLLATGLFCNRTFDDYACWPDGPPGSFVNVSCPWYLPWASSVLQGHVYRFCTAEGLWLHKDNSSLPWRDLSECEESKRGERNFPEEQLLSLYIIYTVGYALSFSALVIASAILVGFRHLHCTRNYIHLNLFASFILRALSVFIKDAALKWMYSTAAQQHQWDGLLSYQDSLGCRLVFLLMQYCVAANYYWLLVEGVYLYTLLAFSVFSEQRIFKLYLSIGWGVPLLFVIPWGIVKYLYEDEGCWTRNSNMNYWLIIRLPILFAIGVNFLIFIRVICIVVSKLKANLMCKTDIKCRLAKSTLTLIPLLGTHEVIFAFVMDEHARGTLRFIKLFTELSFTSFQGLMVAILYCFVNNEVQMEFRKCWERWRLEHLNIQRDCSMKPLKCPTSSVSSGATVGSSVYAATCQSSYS
Briefly: cell-based or functional assay.

No end group written: not given here. asialo oligosaccharide = asialo (digalactose) oligosaccharide chain

For HAEGTFTSDVSSYLEGQAAKC(disialo oligosaccharide)FIAWLVKGRG [27Cys GLP-1-disialo], the “Relative Activity (cAMP synthesis, EC50 relative to GLP-1 = 1)” value (shortened to “Relative Activity”) is 0.2 relative (GLP-1 = 1).
Turning to HAEGTFTSDVSSYLEGQAAC(asialo oligosaccharide)EFIAWLVKGRG [26Cys GLP-1-asialo], the “Relative Activity” value is 0.8 relative (GLP-1 = 1).
For HAEGTFTSDVSSYLEGQAAKEFIAWC(disialo oligosaccharide)VKGRG [32Cys GLP-1-disialo], the “Relative Activity” value is < 0.1 relative (GLP-1 = 1).
Turning to HAEGTFTSDVSSYC(disialo oligosaccharide)EGQAAKEFIAWLVKGRG [20Cys GLP-1-disialo], the “Relative Activity” value is < 0.1 relative (GLP-1 = 1).
Consider HAEGC(disialo oligosaccharide)FTSDVSSYLEGQAAKEFIAWLVKGRG [11Cys GLP-1-disialo], for which the “Relative Activity” value was < 0.1 relative (GLP-1 = 1).
HAEGTFTSDC(disialo oligosaccharide)SSYLEGQAAKEFIAWLVKGRG [16Cys GLP-1-disialo]: the “Relative Activity” value was < 0.1 relative (GLP-1 = 1).
Turning to HC(disialo oligosaccharide)EGTFTSDVSSYLEGQAAKEFIAWLVKGRG [8Cys GLP-1-disialo], the “Relative Activity” value is < 0.1 relative (GLP-1 = 1).
As to HAEGTFTSDVSSYLEGQAAKEFIAWLVC(disialo oligosaccharide)GRG [34Cys GLP-1-disialo], the “Relative Activity” value is 0.7 relative (GLP-1 = 1).
HAEGTFTSDVSSYLEGQAAKEFIAWLVKGC(disialo oligosaccharide)G [36Cys GLP-1-disialo]: the “Relative Activity” value was 1.9 relative (GLP-1 = 1).
In the case of HAEGTFTSDVSSYLEGQAAKEFIC(disialo oligosaccharide)WLVKGRG [30Cys GLP-1-disialo], the “Relative Activity” value is 0.6 relative (GLP-1 = 1).
HAEC(disialo oligosaccharide)TFTSDVSSYLEGQAAKEFIAWLVKGRG [10Cys GLP-1-disialo]: the “Relative Activity” value was < 0.1 relative (GLP-1 = 1).
Turning to HAEGTC(disialo oligosaccharide)TSDVSSYLEGQAAKEFIAWLVKGRG [12Cys GLP-1-disialo], the “Relative Activity” value was < 0.1 relative (GLP-1 = 1).
As to HAEGTFTSDVSSYLEGQAAKEC(disialo oligosaccharide)IAWLVKGRG [28Cys GLP-1-disialo], the “Relative Activity” value is < 0.1 relative (GLP-1 = 1).
Under HAEGTFTSDVSSYLEGQAAC(disialo oligosaccharide)EFIAWLVKGRG [26Cys GLP-1-disialo] stands 0.2 relative (GLP-1 = 1); under HAEGTFTSDVSSYLEGQAAKEFIAWLVKGRGC (disialo oligosaccharide chain added Cys at position 38 (added after 37Gly)) [38Cys GLP-1-disialo], 1.9 relative (GLP-1 = 1).

B1: 6Cys GLP-1-disialo (peptide)
peptide: CHAEGTFTSDVSSYLEGQAAKEFIAWLVKGRG
modifications: disialo oligosaccharide chain added Cys at position 6 (added before 7His; chain attached to Cys with bromoacetamidyl disialo oligosaccharide)
On to B1, for which the “Relative Activity” value is < 0.1 relative (GLP-1 = 1).
Take HAC(disialo oligosaccharide)GTFTSDVSSYLEGQAAKEFIAWLVKGRG [9Cys GLP-1-disialo]: the “Relative Activity” value was < 0.1 relative (GLP-1 = 1).
As to HAEGTFTSDVSSYLEGQAAKEFIAWLVC(asialo oligosaccharide)GRG [34Cys GLP-1-asialo], the “Relative Activity” value was 2.2 relative (GLP-1 = 1).
On to HAEGTFTC(disialo oligosaccharide)DVSSYLEGQAAKEFIAWLVKGRG [14Cys GLP-1-disialo], for which the “Relative Activity” value was < 0.1 relative (GLP-1 = 1).
For HAEGTFTSDVSC(disialo oligosaccharide)YLEGQAAKEFIAWLVKGRG [18Cys GLP-1-disialo], the “Relative Activity” value was < 0.1 relative (GLP-1 = 1).
Consider HAEGTFTSDVSSYLEGQC(disialo oligosaccharide)AKEFIAWLVKGRG [24Cys GLP-1-disialo], for which the “Relative Activity” value is < 0.1 relative (GLP-1 = 1).
Take HAEGTFTSDVSSYLEGQAC(disialo oligosaccharide)KEFIAWLVKGRG [25Cys GLP-1-disialo]: the “Relative Activity” value was < 0.1 relative (GLP-1 = 1).
On to HAEGTFTSDVSSYLEC(disialo oligosaccharide)QAAKEFIAWLVKGRG [22Cys GLP-1-disialo], for which the “Relative Activity” value is 1 relative (GLP-1 = 1).
